Measurements reported in IntAct's records for PubMed 19966800.

B1: Cytotoxicity-associated immunodominant antigen (Helicobacter pylori), P55980 (parent)
chain: MTNETIDQTRTPDQTQSQTAFDPQQFINNLQVAFIKVDNVVASFDPDQKPIVDKNDRDNRQAFDGISQLREEYSNKAIKNPTKKNQYFSDFIDKSNDLINKDNLIDVESSTKSFQKFGDQRYQIFTSWVSHQKDPSKINTRSIRNFMENIIQPPIPDDKEKAEFLKSAKQSFAGIIIGNQIRTDQKFMGVFDESLKERQEAEKNGGPTGGDWLDIFLSFIFNKKQSSDVKEAINQEPVPHVQPDIATTTTDIQGLPPEARDLLDERGNFSKFTLGDMEMLDVEGVADIDPNYKFNQLLIHNNALSSVLMGSHNGIEPEKVSLLYAGNGGFGDKHDWNATVGYKDQQGNNVATLINVHMKNGSGLVIAGGEKGINNPSFYLYKEDQLTGSQRALSQEEIRNKVDFMEFLAQNNTKLDNLSEKEKEKFQNEIEDFQKDSKAYLDALGNDRIAFVSKKDTKHSALITEFNNGDLSYTLKDYGKKADKALDREKNVTLQGSLKHDGVMFVDYSNFKYTNASKNPNKGVGATNGVSHLEAGFNKVAVFNLPDLNNLAITSFVRRNLENKLTAKGLSLQEANKLIKDFLSSNKELAGKALNFNKAVAEAKSTGNYDEVKKAQKDLEKSLRKREHLEKEVEKKLESKSGNKNKMEAKAQANSQKDEIFALINKEANRDARAIAYTQNLKGIKRELSDKLEKISKDLKDFSKSFDEFKNGKNKDFSKAEETLKALKGSVKDLGINPEWISKVENLNAALNEFKNGKNKDFSKVTQAKSDLENSVKDVIINQKVTDKVDNLNQAVSVAKAMGDFSRVEQVLADLKNFSKEQLAQQAQKNEDFNTGKNSELYQSVKNSVNKTLVGNGLSGIEATALAKNFSDIKKELNEKFKNFNNNNNGLKNSTEPIYAKVNKKKTGQVASPEEPIYTQVAKKVNAKIDRLNQIASGLGGVGQAAGFPLKRHDKVDDLSKVGLSASPEPIYATIDDLGGPFPLKRHDKVDDLSKVGRSRNQELAQKIDNLNQAVSEAKAGFFGNLEQTIDKLKDSTKKNVMNLYVESAKKVPASLSAKLDNYAINSHTRINSNIQNGAINEKATGMLTQKNPEWLKLVNDKIVAHNVGSVSLSEYDKIGFNQKNMKDYSDSFKFSTKLNNAVKDIKSGFTHFLANAFSTGYYCLARENAEHGIKNVNTKGGFQKS

Variants of: B1
Conditions: with mark2_human MARK2, Q7KZI7
Chain of mark2_human MARK2, Q7KZI7 (Q7KZI7 whole entry): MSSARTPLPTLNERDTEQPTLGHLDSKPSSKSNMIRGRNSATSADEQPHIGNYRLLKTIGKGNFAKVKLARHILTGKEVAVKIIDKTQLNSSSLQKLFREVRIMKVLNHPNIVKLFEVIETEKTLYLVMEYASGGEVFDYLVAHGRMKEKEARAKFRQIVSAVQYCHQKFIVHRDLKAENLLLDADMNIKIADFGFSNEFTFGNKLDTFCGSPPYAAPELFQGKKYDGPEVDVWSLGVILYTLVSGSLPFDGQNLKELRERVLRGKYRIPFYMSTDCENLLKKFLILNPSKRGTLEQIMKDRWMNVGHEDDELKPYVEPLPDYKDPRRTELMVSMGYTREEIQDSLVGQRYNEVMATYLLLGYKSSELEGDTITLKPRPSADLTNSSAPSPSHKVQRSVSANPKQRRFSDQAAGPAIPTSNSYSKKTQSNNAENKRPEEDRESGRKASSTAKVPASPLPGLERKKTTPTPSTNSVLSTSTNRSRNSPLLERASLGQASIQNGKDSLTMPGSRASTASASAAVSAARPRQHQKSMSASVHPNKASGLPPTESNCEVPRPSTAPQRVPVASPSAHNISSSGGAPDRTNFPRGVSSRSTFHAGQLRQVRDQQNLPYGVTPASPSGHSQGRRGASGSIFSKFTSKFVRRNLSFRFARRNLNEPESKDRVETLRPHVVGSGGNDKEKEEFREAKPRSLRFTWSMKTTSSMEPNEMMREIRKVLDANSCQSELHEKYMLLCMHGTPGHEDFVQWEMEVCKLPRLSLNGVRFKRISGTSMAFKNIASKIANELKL

| Variant | effect of a mutation on the interaction |
| --- | --- |
| V956G | disrupting interaction |
| R952G | decreasing interaction |
| L950G | disrupting interaction |
| L959G | disrupting interaction |
